# Reference: patent publication US20260226524A1, “GLUTAMINE SYNTHETASE MARKER FOR RECOMBINANT EXPRESSION” (priority 2023, published 2026)
# B1: koala GS: Phascolarctos cinerecus glutamine synthetase, SEQ ID NO: 1 (nucleotide SEQ ID NO: 10), used as selectable marker (protein, listed as Phascolarctos cinereus)
# chain: MATSASSHLNKNIKQMYMNLPQGNKVLAMYIWIDGTGEGLRCKTRTLDSEPKSIDDLPEWNFDGSSTYQSEGSNSDMYLVPAALFRDPFRKDPNKLVFCEVFKYNRKPAETNLRHTCKRIMDMVTNQKPWFGMEQEYTLMGTDGHPFGWPSNGFPGPQGPYYCGVGADKAYGRDIAEAHYRACLYAGVKIVGTNAEAMPSQWEFQIGPCEGIEMGDHLWVARFILHRVCEDFGMIVTFDPKPIPGNWNGAGCHTNFSTKAMREENGLKFIEEAIERLSKRHKYHIRAYDPKGGLDNARRLTGFNETSNINEFSAGVANRGASIRIPRMVGQDKKGYFEDRRPSANCDPYAVTEALIRTCLLNETGEEPFQYKN
# modifications: Koala GS
# B2: Chinese hamster GS: Cricetulus griseus glutamine synthetase, SEQ ID NO: 9 (nucleotide SEQ ID NO: 18), Uniprot P04773; traditional selectable marker (protein, listed as Cricetulus griseus)
# chain: MATSASSHLNKGIKQMYMSLPQGEKVQAMYIWVDGTGEGLRCKTRTLDCEPKCVEELPEWNFDGSSTFQSESSNSDMYLSPVAMFRDPFRKEPNKLVFCEVFKYNQKPAETNLRHTCKRIMDMVSNQHPWFGMEQEYTLLGTDGHPFGWPSDGFPGPQGLYYCGVGADKAYRRDIMEAHYRACLYAGVKITGTYAEVKHAQWEFQIGPCEGIRMGDHLWVARFILHRVCKDFGVIATFDSKPIPGNWNGAGCHTNFSTKTMREENGLKHIKEAIEKLSKRHRYHIRAYDPKGGLDNARRLTGFHKTSNINDFSAGVADRSASIRIPRTVGQEKKGYFEARCPSANCDPFAVTEAIVRTCLLNETGDQPFQYKN
# modifications: Hamster GS
# B3: junglefowl GS: Gallus gallus glutamine synthetase, SEQ ID NO: 6 (nucleotide SEQ ID NO: 15), used as selectable marker (protein, listed as Gallus gallus)
# chain: MLRSLQCLLAYRVGSLPLRSWGHRLATTAHARTALASSAAMATSASSHLSKAIKHMYMKLPQGEKVQAMYIWIDGTGEHLRCKTRTLDHEPKSLEDLPEWNFDGSSTFQAEGSNSDMYLRPAAMFRDPFRKDPNKLVLCEVFKYNRQSADTNLRHTCRRIMDMVSNQHPWFGMEQEYTLLGTDGHPFGWPSNGFPGPQGPYYCGVGADKAYGRDIVEAHYRACLYAGVKIGGTNAEVMPAQWEFQVGPCEGIEMGDHLWIARFILHRVCEDFGVIVSFDPKPIPGNWNGAGCHTNFSTKNMREDGGLKHIEEAIEKLSKRHQYHIRAYDPKGGLDNARRLTGFHETSSIHEFSAGVANRGASIRIPRNVGHEKKGYFEDRRPSANCDPYAVTEALVRTCLLNETGDEPFEYKN
# modifications: Junglefowl GS
# B4: snake GS: Pseudonaja textilis glutamine synthetase, SEQ ID NO: 3 (nucleotide SEQ ID NO: 12), used as selectable marker (protein, listed as Pseudonaja textilis)
# chain: MATSASSHLSKTIKQMYMKLPQGDKVQAMYIWIDGTGEFLRCKTRTLEREPKNVEDLPEWNFDGSSTFQSEGSNSDMYLVPSAMFRDPFRKDPNKLVLCEVLKYNRKPAETNLRSTCKRIMDMVSNQNPWFGMEQEYTLLGTDGHPFGWPSNGFPGPQGPYYCGVGADKAYGRDVVEAHYRACLYAGVNIGGTNAEVMPAQWEFQVGPCEGVDMGDHLWIARFILHRVCEDFGVIVSFDPKPIPGNWNGAGCHTNFSTKNMREEGGLKQIEDAIEKLGKRHQYHIRAYDPKGGLDNARRLTGFHETSNIHEFSAGVANRGASIRIPRNVGQVKKGYFEDRRPSANCDPYAVTEALVRTCLLNETGDEPFEYKN
# modifications: Snake GS
# B5: pigeon GS: Columbia Livia glutamine synthetase, SEQ ID NO: 5 (nucleotide SEQ ID NO: 14), used as selectable marker (protein, listed as Columbia livia)
# chain: MALLRSVQCLLTYRASSYRLPALGGFVNLLQHSGGDRSATAACTRNPLVRSAAMATSASSHLSKAIKHMYMKLPQGDKVQAMYIWIDGTGEHLRCKTRTLDHEPKSLEDLPEWNFDGSSTFQSEGSNSDMYLRPAAMFRDPFRKDPNKLVLCEVFKYNRQSAETNLRHTCRRIMDMVSNQHPWFGMEQEYTLLGTDGHPFGWPSNGFPGPQGPYYCGVGADKAYGRDIVEAHYRACLYAGVKIGGTNAEVMPAQWEFQVGPCEGIEMGDHLWIARFILHRVCEDFGVIVSFDPKPIPGNWNGAGCHTNFSTKEMREDGGLKHIEEAIEKLSKRHQYHIRAYDPKGGLDNARRLTGFHETSNIHEFSAGVANRGASIRIPRSVGHEKRGYFEDRRPSANCDPYAVTEALVRTCLLNETGDEPFEYKN
# modifications: pigeon GS
# B6: ostrich GS: Struthio camelus australis glutamine synthetase, SEQ ID NO: 2 (nucleotide SEQ ID NO: 11), used as selectable marker (protein, listed as Struthio camelus)
# chain: MATSASSHLSKAIKHMYMKLPQGEKVQAMYIWIDGTGEHLRCKTRTLDHEPKSLEDLPEWNFDGSSTFQAEGSNSDMYLRPAAMFRDPFRKDPNKLVLCEVFKYNRQSAETNLRHTCRRIMDMVSNQHPWFGMEQEYTLLGTDGHPFGWPSNGFPGPQGPYYCGVGADKAYGRDIVEAHYRACLYAGVKIGGTNAEVMPAQWEFQVGPCEGIEMGDHLWIARFILHRVCEDFGVIVSFDPKPIPGNWNGAGCHTNFSTKSMREDGGLKHIEEAIEKLGKRHQYHIRAYDPKGGLDNARRLTGFHETSSIHEFSAGVANRGASIRIPRNVGHEKKGYFEDRRPSANCDPYAVTEALVRTCLLNETGDEPFEYKN
# modifications: OstrichGS
# Tests used:
# [1] = tested on: Chinese Hamster Ovary CHO-K1 (CCL-61) host cell; experiment: Bio-Layer Interferometry (Octet) analysis of denosumab expression in supernatants of cell pools selected with GS markers; type: cell-based; settings: 50 μM MSX; for pools expressed detectable denosumab (>0.125 ug/mL): Day 20, among 300 seeded pools in 96-well plates, GS used as selectable marker; for median expression value of denosumab of positive pools: Day 20, positive pools (>0.125 ug/mL), Octet ProA biosensor
# Procedure: Vector design: Nearly all selectable marker currently used in GS system is Cricetulus griseus-derived GS.
# (§1) After random integration, GS expression in each individual cell was evaluated by monitoring UnaG level using flow cytometry. Denosumab here served as the secreted reporter for assessing titers using selectable glutamine synthetase markers from different species. The vectors differed from one another by the GS-coding sequences, which were derived from Chinese hamster (Cricetulus griseus), koala (Phascolarctos cinerecus), vesper bat (Pipistrellus kuhlii), gerbil (Meriones unguiculatus), ostrich (Struthio camelus australis), junglefowl (Gallus gallus), pigeon (Columbia Livia), and snake (Pseudonaja textilis), respectively.
# (§2) Electroporation and cell screening: Expression vectors described above were first linearized by the restriction endonuclease Pvul (there was one Pvul site in the ampicillin resistant gene). Then linearized vectors were introduced into the host cell using cell electroporator (Lonza Nuleofector 2b). The host cell was derived from ATCC wild-type Chinese Hamster Ovary CHO-K1 (CCL-61) and adapted to serum-free suspension culture at Shanghai ZhenGe Biotech Co. Ltd. 24 hours post electroporation, cell pools were plated into culture flasks or 96-well plates (approximately 1, 200 cells/well, 300 wells per condition) in the absence of or presence of MSX (50 μM).
# [2] = tested on: Chinese Hamster Ovary CHO-K1 (CCL-61) host cell; experiment: Flow cytometry analysis of GS expression via UnaG fluorescence in electroporated cell pools; type: cell-based; settings: about 3 weeks post-seeding; for UnaG expression of cells (selection efficiency): MSX selection, FIGS. 3A-3B
# Excerpt: Vector design: Nearly all selectable marker currently used in GS system is Cricetulus griseus-derived GS. To investigate whether the GS from other species further improve titer or screening efficiency, a set of vectors were designed as described below: • a sequence coding for an eel green fluorescent protein UnaG, a 2A self-cleaving peptide and a glutamine synthetase, placed under the control of the SV40 promoter; • two expression cassettes, in which the sequences coding for the heavy chain and light chain of a human anti-RANKL antibody denosumab were placed under the control of CMV promoters, respectively; • a sequence coding for a protein conferring resistance to ampicillin, for use in prokaryotic cells; and • a prokaryotic origin of replication.
# as §1, with “The 2A self-cleaving peptide allowed relatively equal molar expression of the two products separated by it, namely, the green fluorescent protein UnaG and glutamine synthetase. After” for “After”
# as §2
# Flow cytometry analysis of GS expression: About 3 weeks post-seeding, cell pools electroporated with GS gene from indicated species were analyzed using Attune NxT flow cytometer (FIGS. 3A-3C). […] As shown, when the GS from Chinese Hamster was used as the selectable marker, most tested cells (>98%) remained UnaG “negative” in the presence of the MSX, indicating low selection efficiency.
Molecule,pools expressed detectable denosumab (>0.125 ug/mL) [1],median expression value of denosumab of positive pools [1],UnaG expression of cells (selection efficiency) [2],tested cells remaining UnaG negative ([2]; in the presence of the MSX (50 μM))
B1,85.6%,2.86 µg/mL,significant amounts of cells showed positive UnaG expression,
B2,4.3%,1.07 µg/mL,,> 98%
B3,73.6%,2.51 µg/mL,significant amounts of cells showed positive UnaG expression,
B4,38.0%,1.75 µg/mL,significant amounts of cells showed positive UnaG expression,
B5,52.0%,2.27 µg/mL,significant amounts of cells showed positive UnaG expression,
B6,65.3%,2.57 µg/mL,significant amounts of cells showed positive UnaG expression,
